The results in this text go back to publication PMC5342261.

The target of one assay is B12. The assay can be described thus: yeast display.
For a further assay, the target named is B6. The assay can be described thus: yeast display.
The target in the next assay is PGV04. Put plainly: yeast display.
In assay [1] the target is VRC01. Put plainly: yeast display.
A further assay concerns the target CH98. The assay can be described thus: ELISA. In general terms: ELISA stands for enzyme-linked immunosorbent assay.
The next assay deals with HJ16. The assay can be described thus: ELISA.
The target of assay [2] is VRC01. The assay can be described thus: ELISA.

Consider “B.YU2gp120 core (ΔV1, V2, V3 loops) Q337V”, for which the percent of parent with B12 is 88%; with B6, 87%; in the assay with PGV04, 89%; with VRC01 [1] it was 91%.
Regarding “B.YU2gp120 core (ΔV1, V2, V3 loops) K231T”, the percent of parent is 98% with B12, 94% with B6 and 74% with VRC01 [1].
For the substance “B.YU2gp120 core (ΔV1, V2, V3 loops) H216Y”, the percent of parent with B12 was determined as 108%; with B6, 99%; in the assay with PGV04, 96%; with VRC01 [1], 104%.
The like results for “B.YU2gp120 core (ΔV1, V2, V3 loops) I467K” were, in that order, 51%, 93%, 43% and 48%.
As for “B.YU2gp120 core (ΔV1, V2, V3 loops) G473R”, the percent of parent is 113% with B12, 78% with B6, 17% with PGV04 and 19% with VRC01 [1].
As for “B.YU2gp120 core (ΔV1, V2, V3 loops) D368R”, the percent of parent in the assay with B6 stood at 53%; with PGV04 it was 7%; with VRC01 [1], 13%.
As to “B.YU2gp120 core (ΔV1, V2, V3 loops) L265R”, the percent of parent with B12 worked out at 91%; in the assay with B6, 85%; with PGV04, 79%; with VRC01 [1], 88%.
Turning to “B.YU2gp120 core (ΔV1, V2, V3 loops) E269G”, the percent of parent in the assay with B12 amounted to 95%; with B6, 75%; in the assay with PGV04 it was 83%; in the assay with VRC01 [1], 82%.
On to AE.A244gp120 I371del; P363N, for which the values for the percent of parent with CH98 and in the assay with HJ16 were 0% and 80%, respectively.
Regarding AE.A244gp120 T278A, the percent of parent is 19% with CH98, 13% in the assay with HJ16 and 96% with VRC01 [2].
For “B.YU2gp120 core (ΔV1, V2, V3 loops) T455E”, the percent of parent with B12 is 14%; in the assay with B6, 92%; with PGV04, 31%; in the assay with VRC01 [1], 49%.
For “B.YU2gp120 core (ΔV1, V2, V3 loops) R403V”, the percent of parent with B12 came out at 76%; with B6, 96%; with PGV04, 94%; in the assay with VRC01 [1], 99%.
The matching figures for “B.YU2gp120 core (ΔV1, V2, V3 loops) G327R”: 90%, 95%, 89% and 95%.
The like results for “B.YU2gp120 core (ΔV1, V2, V3 loops) R412V” were, in that order, 87%, 99%, 100% and 104%.
As to “B.YU2gp120 core (ΔV1, V2, V3 loops) D397F”, the figures for the percent of parent in the assay with B12, with B6 and in the assay with VRC01 [1] were 91%, 94% and 73%, respectively.
On to “B.YU2gp120 core (ΔV1, V2, V3 loops) V200K”, for which the percent of parent was 94% with B12, 90% with B6, 96% with PGV04 and 99% in the assay with VRC01 [1].
The matching figures for “B.YU2gp120 core (ΔV1, V2, V3 loops) Q344V”: 94%, 96%, 79% and 82%.
The like results for “B.YU2gp120 core (ΔV1, V2, V3 loops) L405D” were, in that order, 80%, 99%, 104% and 109%.
For the substance “B.YU2gp120 core (ΔV1, V2, V3 loops) Q442V”, the percent of parent with B12 stood at 72%; with B6 it was 95%; with PGV04 it was 92%; with VRC01 [1] it was 97%.
Turning to “B.YU2gp120 core (ΔV1, V2, V3 loops) R476V”, the percent of parent with B12 stood at 97%; with B6, 13%; with PGV04, 91%; with VRC01 [1] it was 62%.
The like results for “B.YU2gp120 core (ΔV1, V2, V3 loops) G459E” were, in that order, 105%, 99%, 8% and 28%.
The like results for “B.YU2gp120 core (ΔV1, V2, V3 loops) N197K” were, in that order, 89%, 93%, 86% and 86%.
For AE.A244gp120 N276A, the percent of parent with CH98 worked out at 0%; with VRC01 [2], 51%.
For “B.YU2gp120 core (ΔV1, V2, V3 loops) S365K”, the percent of parent with B12 came to 28%; with B6, 97%; with PGV04, 8%; with VRC01 [1], 31%.
The like results for “B.YU2gp120 core (ΔV1, V2, V3 loops) K282V” were, in that order, 51%, 61%, 74% and 50%.
The like results for “B.YU2gp120 core (ΔV1, V2, V3 loops) K121T” were, in that order, 100%, 102%, 73% and 80%.
The matching figures for “B.YU2gp120 core (ΔV1, V2, V3 loops) T240K”: 101%, 95%, 88% and 92%.
Regarding “B.YU2gp120 core (ΔV1, V2, V3 loops) G434K”, the percent of parent with B12 is 76%; with B6, 85%; with PGV04, 85%; in the assay with VRC01 [1], 85%.
Take “B.YU2gp120 core (ΔV1, V2, V3 loops) S446K”: the percent of parent is 113% with B12, 100% in the assay with B6, 104% with PGV04 and 108% in the assay with VRC01 [1].
The like results for “B.YU2gp120 core (ΔV1, V2, V3 loops) T278K” were, in that order, 89%, 98%, 122% and 196%.
On to “B.YU2gp120 core (ΔV1, V2, V3 loops) R419G”, for which the results for the percent of parent with B12, in the assay with B6 and in the assay with PGV04 were 13%, 98% and 65%, respectively.
For the substance “B.YU2gp120 core (ΔV1, V2, V3 loops) K490S”, the figures for the percent of parent with B12 and in the assay with VRC01 [1] were 89% and 75%, respectively.
For AE.A244gp120 D368R, the percent of parent with CH98 turned out to be 0%; with HJ16, 98%; in the assay with VRC01 [2], 23%.
